The chains are these.
B1: glmS ribozyme (parent)
chain: AUAAAAGCGCCAGAACUACAGAAAUGUAGUUGACGAGGAGGAGGUUUAUCGAAUUUUCGGCGGAUGCCUCCAAA

Details in all cases: with glucosamine-6-phosphate
In data set [1] the parent is B1. Nature of the data set: self-cleavage kobs at 40 uM GlcN6P; higher = faster cleavage; RNA array. The essentials:
(§1)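 Tracking of barcoded ribozyme variants used a hybridised Cy3 probe at 37 °C, after in situ transcription by E. coli RNA polymerase on sequenced MiSeq chips. The flowed solution held 40 μM to 10 mM glucosamine-6-phosphate in HEPES/KCl/Mg(OAc)2 buffer, and imaging ran over ~14 h. kobs was taken from exponential decay fits of normalised per-tile medians, and kcat and KM from weighted Michaelis–Menten fits.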

The variants in data set [2] derive from B1. The experiment in a line: self-cleavage kobs at 160 uM GlcN6P; higher = faster cleavage; RNA array. A digest of the protocol: as §1
In data set [3] the parent is B1. Nature of the data set: self-cleavage kobs at 2500 uM GlcN6P; higher = faster cleavage; RNA array. The essentials:
as §1

Variants of B1 are the subject of data set [4]. The experiment in a line: self-cleavage kobs at 10000 uM GlcN6P; higher = faster cleavage; RNA array. The essentials:
as §1

In data set [5] the parent is B1. Nature of the data set: self-cleavage kobs at 640 uM GlcN6P; higher = faster cleavage; RNA array. The essentials: as §1

± gives the standard error. Fewer inactive variants are shown than the library holds.

On to AUAAAAGCGCCAGAACUACAGAAAUGUAGUUCACGAGGAGGAGGUUUAUCGAAUUUUCGGCGGCUGCCUCCAAA [G32C A64C], for which the “self-cleavage kobs at 40 uM GlcN6P” value in the data set with glucosamine-6-phosphate [1] is less than 1e-05 s⁻¹. Further, in the data set with glucosamine-6-phosphate [2], the “self-cleavage kobs at 160 uM GlcN6P” value is less than 1e-05 s⁻¹. For the same variant, in the data set with glucosamine-6-phosphate [3], the “self-cleavage kobs at 2500 uM GlcN6P” value is less than 1e-05 s⁻¹. The “self-cleavage kobs at 10000 uM GlcN6P” value in the data set with glucosamine-6-phosphate [4] is less than 1e-05 s⁻¹.

With AUAAAAGCGCCAGAACUACAGAAAUGUAGUCCACAAGGAGGAGGUUUAUCGAAUUUUCUGCGGAUUCCUCUAAA [U31C G32C G35A G59U G66U C71U], the “self-cleavage kobs at 40 uM GlcN6P” value with glucosamine-6-phosphate [1] is less than 1e-05 s⁻¹. The “self-cleavage kobs at 2500 uM GlcN6P” value with glucosamine-6-phosphate [3] was less than 1e-05 s⁻¹. In addition, in the data set with glucosamine-6-phosphate [4], the “self-cleavage kobs at 10000 uM GlcN6P” value was less than 1e-05 s⁻¹.

In the case of AUAAAAGCGCCAUAACUACAGAAAUGUAGUUGACGAGAUGGAGGUUUAUCGAAUUUUCGGCGGAUGCCUCCAAA [G13U G38A A39U], the “self-cleavage kobs at 40 uM GlcN6P” value with glucosamine-6-phosphate [1] was less than 1e-05 s⁻¹.

For the variant AUAAAAGCGCCAGAACUACAGAAAUGUAGAUGACGAGGAGGAGGUUUAUCGAAAUUUCUGCUGAUGUCUUCAAA [U30A U54A G59U G62U C67U C70U], the “self-cleavage kobs at 40 uM GlcN6P” value with glucosamine-6-phosphate [1] was less than 1e-05 s⁻¹. For the same variant, the “self-cleavage kobs at 10000 uM GlcN6P” value with glucosamine-6-phosphate [4] is less than 1e-05 s⁻¹.

In the case of AUAAAAGCGCCAGAACUACAGAAAUGUAGUUGACAAGGAGGAGGUUUAUCGAAUUUGCGGCGGAUGCCUCCAAA [G35A U57G], the “self-cleavage kobs at 40 uM GlcN6P” value with glucosamine-6-phosphate [1] is less than 1e-05 s⁻¹.

With AUAAAAGCGCCAGAACUACAGAAAUGUAGUUGAAGAGGAGGAGGUUGAUCGAAGUUUCUGCGGAUGCGUCCAAA [C34A U47G U54G G59U C68G], the “self-cleavage kobs at 40 uM GlcN6P” value with glucosamine-6-phosphate [1] stood at 0.000664 ± 0.0002 s⁻¹. The “self-cleavage kobs at 10000 uM GlcN6P” value with glucosamine-6-phosphate [4] was 0.000474 ± 0.00012 s⁻¹.

Regarding AUAAAAGCGCCAGAACUACAGAAAUUUAGUUGACGAGGAGGAGGUGUAUCGAAUUUUCGGCGGAUGCCUCCAAA [G26U U46G], the “self-cleavage kobs at 40 uM GlcN6P” value with glucosamine-6-phosphate [1] was found to be 0.000306 ± 7.3e-05 s⁻¹. The “self-cleavage kobs at 10000 uM GlcN6P” value with glucosamine-6-phosphate [4] came out at 0.00888 ± 0.0026 s⁻¹.

Turning to AUAAAAGCACCAGUACUACAGAAAUGUAGUUGACGAGGAGGAGGUUUAUCGAAUUUUCGGAGGAUGCCUCCAAA [G9A A14U C61A], in the data set with glucosamine-6-phosphate [1], the “self-cleavage kobs at 40 uM GlcN6P” value is less than 1e-05 s⁻¹. Also, in the data set with glucosamine-6-phosphate [3], the “self-cleavage kobs at 2500 uM GlcN6P” value was less than 1e-05 s⁻¹.

As for AUAAAAGCGUCAGAACUACAGAAAUGUAGUUGACGACGAGGCGGUUUAUCGAAUUUUCGGCGGAUGCCUCCAAA [C10U G37C A42C], in the data set with glucosamine-6-phosphate [1], the “self-cleavage kobs at 40 uM GlcN6P” value is less than 1e-05 s⁻¹. Besides, the “self-cleavage kobs at 2500 uM GlcN6P” value with glucosamine-6-phosphate [3] is less than 1e-05 s⁻¹. Also, in the data set with glucosamine-6-phosphate [4], the “self-cleavage kobs at 10000 uM GlcN6P” value is less than 1e-05 s⁻¹.

As for AUAAAAGCGCCAGAACUACAGAAAUGUAGUUGACGAGGAGGAGCUUUAUCGUAUUUUCGGCGGAUGCCUCCAAA [G44C A52U], in the data set with glucosamine-6-phosphate [1], the “self-cleavage kobs at 40 uM GlcN6P” value is less than 1e-05 s⁻¹.

For AUAAAAGCGCCAGAACUACAGAAAUGUAGUUGACGAGGAGGAGGUGGAUCGAAUUUUCGGCGGAUGACUCCAAA [U46G U47G C67A], the “self-cleavage kobs at 40 uM GlcN6P” value with glucosamine-6-phosphate [1] is 7.27e-05 ± 2e-05 s⁻¹. Further, in the data set with glucosamine-6-phosphate [4], the “self-cleavage kobs at 10000 uM GlcN6P” value was found to be 0.0021 ± 0.00039 s⁻¹.

Turning to AUAAAGGCGACAAAACUACAGAAAUGUAGUUGACGAGGAGGAGGUUUAUCGAAUUUUCGGCAGAAGCCUCCAAA [A6G C10A G13A G62A U65A], in the data set with glucosamine-6-phosphate [1], the “self-cleavage kobs at 40 uM GlcN6P” value was less than 1e-05 s⁻¹. Further, the “self-cleavage kobs at 10000 uM GlcN6P” value with glucosamine-6-phosphate [4] was less than 1e-05 s⁻¹.

Turning to AUAAACGCGCCAGAACUACAGAAAUGUAGUUGUCGAGGAGGAGGUUUAUCGAAUUUUGGUCGGAUGCCUCAAAA [A6C A33U C58G G60U C71A], the “self-cleavage kobs at 40 uM GlcN6P” value with glucosamine-6-phosphate [1] was less than 1e-05 s⁻¹.

AUAAAAGCGCCAGAACUACAGAAAUGUAGUUGACGAGGAGCACGUUUAUCGAAUUUUCGGCGGAUGCCUCCAAA [G41C G43C]: the “self-cleavage kobs at 40 uM GlcN6P” value in the data set with glucosamine-6-phosphate [1] was less than 1e-05 s⁻¹. Besides, the “self-cleavage kobs at 160 uM GlcN6P” value with glucosamine-6-phosphate [2] is less than 1e-05 s⁻¹. Moreover, in the data set with glucosamine-6-phosphate [5], the “self-cleavage kobs at 640 uM GlcN6P” value was less than 1e-05 s⁻¹. Further, the “self-cleavage kobs at 10000 uM GlcN6P” value with glucosamine-6-phosphate [4] is less than 1e-05 s⁻¹.

As to AUAAAACCGCCAGAACUACAGAAAUGUAGUUGACGAGGAGGAGGUUUAACGAAUUUUCGGCGGAUGCCUCCAAA [G7C U49A], the “self-cleavage kobs at 40 uM GlcN6P” value with glucosamine-6-phosphate [1] was less than 1e-05 s⁻¹. Besides, the “self-cleavage kobs at 160 uM GlcN6P” value in the data set with glucosamine-6-phosphate [2] is less than 1e-05 s⁻¹. For the same variant, the “self-cleavage kobs at 2500 uM GlcN6P” value with glucosamine-6-phosphate [3] is less than 1e-05 s⁻¹. In the data set with glucosamine-6-phosphate [4], the “self-cleavage kobs at 10000 uM GlcN6P” value is less than 1e-05 s⁻¹.

On to AUAAAAGCGCCAGAACUACAGAAAUGUAGUUGACGAGGAGGAGGUUUAUCGAAUUCGCGGCGGAUGCCUCCAAA [U56C U57G], for which, in the data set with glucosamine-6-phosphate [1], the “self-cleavage kobs at 40 uM GlcN6P” value was less than 1e-05 s⁻¹. For the same variant, the “self-cleavage kobs at 2500 uM GlcN6P” value with glucosamine-6-phosphate [3] is 2.91e-05 ± 1.2e-05 s⁻¹. For the same variant, the “self-cleavage kobs at 10000 uM GlcN6P” value with glucosamine-6-phosphate [4] turned out to be 8.26e-05 ± 2.1e-05 s⁻¹.
